From article PMC5216127 (2017)

Key:
[1] = biological target: T1, GST-TCF4 (8–411, deletion 66–325) (human, biotin (only where coated on the streptavidin biosensor, Figure 5e)); experiment: BLI
T1 chain: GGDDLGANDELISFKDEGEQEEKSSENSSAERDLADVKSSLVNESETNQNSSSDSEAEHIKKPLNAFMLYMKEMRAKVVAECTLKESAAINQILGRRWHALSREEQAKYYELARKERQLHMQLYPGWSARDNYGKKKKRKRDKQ

[2] = biological target: T2, GST-tagged TCF4 (amino acids 326–411) (human); experiment: BLI
T2 chain: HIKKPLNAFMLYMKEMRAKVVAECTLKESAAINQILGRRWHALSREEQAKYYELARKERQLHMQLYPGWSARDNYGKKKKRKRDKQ

Kd [1]: 0.132 µM | Kd [2]: 0.288 µM
B1: TEAD4 (TEA, 38–105) (domain or fragment)
chain: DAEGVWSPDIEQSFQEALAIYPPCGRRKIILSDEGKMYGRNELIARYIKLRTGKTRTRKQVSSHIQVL
